# Test results taken from the RNAGym collection of RNA variant scans (doi:10.1093/molbev/msab373).
# B1: Azoarcus group I ribozyme (parent)
# chain: GUGCCUUGCGCCGGGAAACCACGCAAGGGAUGGUGUCAAAUUCGGCGAAACCUAAGCGCCCGCCCGGGCGUAUGGCAACGCCGAGCCAAGCUUCGGCGCCUGCGCCGAUGAAGGUGUAGAGACUAGACGGCACCCACCUAAGGCAAACGCUAUGGUGAAGGCAUAGUCCAGGGAGUGGCGAAAGUCACACAAACCGG
# Variants of: B1
# Assay: reverse-splicing fitness (ratio to wild type); higher = more active; in vitro selection; Mg2+ level not given
# Outline: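 An in vitro group I ribozyme library with randomized positions was T7-transcribed and gel-purified. In triplicate, 10 pmol RNA in EPPS pH 7.5 was reacted with 50 pmoles of a 30-nt RNA substrate for 1 h at 37 °C across several added MgCl2 levels (1–48 mM), then stopped with EDTA. Products were reverse transcribed from a substrate-complementary primer, PCR-amplified and sequenced (HiSeq 4000). Fitness is a variant's read proportion after selection over that before, normalised to wild type.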
row,Variant,reverse-splicing fitness
1,GUGCCUUGCGCCGGGAAACCACGCAAGGGAUGGUGUCAAAUUCGGCGAAACCUAAGCGCCCGCCCGGGCGUAUGGCAACGCCGAGCCAAGCUUCGGCGCCUGCGCCGAUGCAGGUGUAGAGACUAGACGGCACCCACCUAAGGCGAACGGUAUGGUGAAGGCAUAGUCCAGGGAGUGGCGAAAGUCACACAAACCGG,0.212
2,GUGCCUUGCGCCGGGAAACCACGCAAGGGAUGGUGUCAAAUUCGGCGAAACCUAAGCGCCCGCCCGGGCGUAUGGCAACGCCGAGCCAAGCUUCGGCGCCUGCGCCGAUGCAGGUGUAGAGACUAGACGGCACCCACCUAAGGCGAACGUUAUGGUGAAGGCAUAGUCCAGGGAGUGGCGAAAGUCACACAAACCGG,0.679
3,GUGCCUUGCGCCGGGAAACCACGCAAGGGAUGGUGUCAAAUUCGGCGAAACCUAAGCGCCCGCCCGGGCGUAUGGCAACGCCGAGCCAAGCUUCGGCGCCUGCGCCGAUGCAGGUGUAGAGACUAGACGGCACCCACCUAAGGCGAACGAUAUGGUGAAGGCAUAGUCCAGGGAGGGGCGAAAGUCACACAAACCGG,0.058
4,GUGCCUUGCGCCGGGAAACCACGCAAGGGAUGGUGUCAAAUUCGGCGAAACCUAAGCGCCCGCCCGGGCGUAUGGCAACGCCGAGCCAAGCUUCGGCGCCUGCGCCGAUGCAGGUGUAGAGACUAGACGGCACCCACCUAAGGCGAACGAUAUGGUGAAGGCAUAGUCCAGGGAGCGGCGAAAGUCACACAAACCGG,0.168
5,GUGCCUUGCGCCGGGAAACCACGCAAGGGAUGGUGUCAAAUUCGGCGAAACCUAAGCGCCCGCCCGGGCGUAUGGCAACGCCGAGCCAAGCUUCGGCGCCUGCGCCGAUGCAGGUGUAGAGACUAGACGGCACCCACCUAAGGCGAACGUUAUGGUGAAGGCAUAGUCAAGGGAGUGGCGAAAGUCACACAAACCGG,0.0243
6,GUGCCUUGCGCCGGGAAACCACGCAAGGGAUGGUGUCAAAUUCGGCGAAACCUAAGCGCCCGCCCGGGCGUAUGGCAACGCCGAGCCAAGCUUCGGCGCCUGCGCCGAUGCAGGUGUAGAGACUAGACGGCACCCACCUAAGGCGAACGUUAUGGUGAAGGCAUAGUCGAGGGAGUGGCGAAAGUCACACAAACCGG,0.0511
7,GUGCCUUGCGCCGGGAAACCACGCAAGGGAUGGUGUCAAAUUCGGCGAAACCUAAGCGCCCGCCCGGGCGUAUGGCAACGCCGAGCCAAGCUUCGGCGCCUGCGCCGAUGCAGGUGUAGAGACUAGACGGCACCCACCUAAGGCGAACGUUAUGGUGAAGGCAUAGUCUAGGGAGUGGCGAAAGUCACACAAACCGG,0.0877
8,GUGCCUUGCGCCGGGAAACCACGCAAGGGAUGGUGUCAAAUUCGGCGAAACCUAAGCGCCCGCCCGGGCGUAUGGCAACGCCGAGCCAAGCUUCGGCGCCUGCGCCGAUGCAGGUGUAGAGACUAGACGGCACCCACCUAAGGCGAACGUUAUGGUGAAGGCAUAGUCUAGGGAGAGGCGAAAGUCACACAAACCGG,0.0237
9,GUGCCUUGCGCCGGGAAACCACGCAAGGGAUGGUGUCAAAUUCGGCGAAACCUAAGCGCCCGCCCGGGCGUAUGGCAACGCCGAGCCAAGCUUCGGCGCCUGCGCCGAUGCAGGUGUAGAGACUAGACGGCACCCACCUAAGGCGAACGUUAUGGUGAAGGCAUAGUCUAGGGAGCGGCGAAAGUCACACAAACCGG,0.0254
10,GUGCCUUGCGCCGGGAAACCACGCAAGGGAUGGUGUCAAAUUCGGCGAAACCUAAGCGCCCGCCCGGGCGUAUGGCAACGCCGAGCCAAGCUUCGGCGCCUGCGCCGAUGCAGGUGUAGAGACUAGACGGCACCCACCUAAGGCGAACGGUAUGGUGAAGGCAUAGUCAAGGGAGCGGCGAAAGUCACACAAACCGG,0.011
11,GUGCCUUGCGCCGGGAAACCACGCAAGGGAUGGUGUCAAAUUCGGCGAAACCUAAGCGCCCGCCCGGGCGUAUGGCAACGCCGAGCCAAGCUUCGGCGCCUGCGCCGAUGCAGGUGUAGAGACUAGACGGCACCCACCUAAGGCGAACGGUAUGGUGAAGGCAUAGUCAAGGGAGAGGCGAAAGUCACACAAACCGG,0.0119
12,GUGCCUUGCGCCGGGAAACCACGCAAGGGAUGGUGUCAAAUUCGGCGAAACCUAAGCGCCCGCCCGGGCGUAUGGCAACGCCGAGCCAAGCUUCGGCGCCUGCGCCGAUGCAGGUGUAGAGACUAGACGGCACCCACCUAAGGCGAACGGUAUGGUGAAGGCAUAGUCAAGGGAGGGGCGAAAGUCACACAAACCGG,0.00766
13,GUGCCUUGCGCCGGGAAACCACGCAAGGGAUGGUGUCAAAUUCGGCGAAACCUAAGCGCCCGCCCGGGCGUAUGGCAACGCCGAGCCAAGCUUCGGCGCCUGCGCCGAUGCAGGUGUAGAGACUAGACGGCACCCACCUAAGGCGAACGGUAUGGUGAAGGCAUAGUCGAGGGAGCGGCGAAAGUCACACAAACCGG,0.0102
14,GUGCCUUGCGCCGGGAAACCACGCAAGGGAUGGUGUCAAAUUCGGCGAAACCUAAGCGCCCGCCCGGGCGUAUGGCAACGCCGAGCCAAGCUUCGGCGCCUGCGCCGAUGCAGGUGUAGAGACUAGACGGCACCCACCUAAGGCGAACGGUAUGGUGAAGGCAUAGUCGAGGGAGGGGCGAAAGUCACACAAACCGG,0.00555
15,GUGCCUUGCGCCGGGAAACCACGCAAGGGAUGGUGUCAAAUUCGGCGAAACCUAAGCGCCCGCCCGGGCGUAUGGCAACGCCGAGCCAAGCUUCGGCGCCUGCGCCGAUGCAGGUGUAGAGACUAGACGGCACCCACCUAAGGCGAACGGUAUGGUGAAGGCAUAGUCGAGGGAGAGGCGAAAGUCACACAAACCGG,0.00954
16,GUGCCUUGCGCCGGGAAACCACGCAAGGGAUGGUGUCAAAUUCGGCGAAACCUAAGCGCCCGCCCGGGCGUAUGGCAACGCCGAGCCAAGCUUCGGCGCCUGCGCCGAUGCAGGUGUAGAGACUAGACGGCACCCACCUAAGGCGAACGGUAUGGUGAAGGCAUAGUCCAGGGAGAGGCGAAAGUCACACAAACCGG,0.0686
17,GUGCCUUGCGCCGGGAAACCACGCAAGGGAUGGUGUCAAAUUCGGCGAAACCUAAGCGCCCGCCCGGGCGUAUGGCAACGCCGAGCCAAGCUUCGGCGCCUGCGCCGAUGCAGGUGUAGAGACUAGACGGCACCCACCUAAGGCGAACGGUAUGGUGAAGGCAUAGUCCAGGGAGCGGCGAAAGUCACACAAACCGG,0.13
18,GUGCCUUGCGCCGGGAAACCACGCAAGGGAUGGUGUCAAAUUCGGCGAAACCUAAGCGCCCGCCCGGGCGUAUGGCAACGCCGAGCCAAGCUUCGGCGCCUGCGCCGAUGCAGGUGUAGAGACUAGACGGCACCCACCUAAGGCGAACGGUAUGGUGAAGGCAUAGUCCAGGGAGGGGCGAAAGUCACACAAACCGG,0.0194
19,GUGCCUUGCGCCGGGAAACCACGCAAGGGAUGGUGUCAAAUUCGGCGAAACCUAAGCGCCCGCCCGGGCGUAUGGCAACGCCGAGCCAAGCUUCGGCGCCUGCGCCGAUGCAGGUGUAGAGACUAGACGGCACCCACCUAAGGCGAACGGUAUGGUGAAGGCAUAGUCUAGGGAGGGGCGAAAGUCACACAAACCGG,0.00713
20,GUGCCUUGCGCCGGGAAACCACGCAAGGGAUGGUGUCAAAUUCGGCGAAACCUAAGCGCCCGCCCGGGCGUAUGGCAACGCCGAGCCAAGCUUCGGCGCCUGCGCCGAUGCAGGUGUAGAGACUAGACGGCACCCACCUAAGGCGAACGGUAUGGUGAAGGCAUAGUCUAGGGAGAGGCGAAAGUCACACAAACCGG,0.0107
21,GUGCCUUGCGCCGGGAAACCACGCAAGGGAUGGUGUCAAAUUCGGCGAAACCUAAGCGCCCGCCCGGGCGUAUGGCAACGCCGAGCCAAGCUUCGGCGCCUGCGCCGAUGCAGGUGUAGAGACUAGACGGCACCCACCUAAGGCGAACGGUAUGGUGAAGGCAUAGUCUAGGGAGCGGCGAAAGUCACACAAACCGG,0.0142
22,GUGCCUUGCGCCGGGAAACCACGCAAGGGAUGGUGUCAAAUUCGGCGAAACCUAAGCGCCCGCCCGGGCGUAUGGCAACGCCGAGCCAAGCUUCGGCGCCUGCGCCGAUGCAGGUGUAGAGACUAGACGGCACCCACCUAAGGCGAACGUUAUGGUGAAGGCAUAGUCGAGGGAGGGGCGAAAGUCACACAAACCGG,0.00741
23,GUGCCUUGCGCCGGGAAACCACGCAAGGGAUGGUGUCAAAUUCGGCGAAACCUAAGCGCCCGCCCGGGCGUAUGGCAACGCCGAGCCAAGCUUCGGCGCCUGCGCCGAUGCAGGUGUAGAGACUAGACGGCACCCACCUAAGGCGAACGUUAUGGUGAAGGCAUAGUCGAGGGAGAGGCGAAAGUCACACAAACCGG,0.0138
24,GUGCCUUGCGCCGGGAAACCACGCAAGGGAUGGUGUCAAAUUCGGCGAAACCUAAGCGCCCGCCCGGGCGUAUGGCAACGCCGAGCCAAGCUUCGGCGCCUGCGCCGAUGCAGGUGUAGAGACUAGACGGCACCCACCUAAGGCGAACGUUAUGGUGAAGGCAUAGUCGAGGGAGCGGCGAAAGUCACACAAACCGG,0.021
25,GUGCCUUGCGCCGGGAAACCACGCAAGGGAUGGUGUCAAAUUCGGCGAAACCUAAGCGCCCGCCCGGGCGUAUGGCAACGCCGAGCCAAGCUUCGGCGCCUGCGCCGAUGCAGGUGUAGAGACUAGACGGCACCCACCUAAGGCGAACGUUAUGGUGAAGGCAUAGUCAAGGGAGGGGCGAAAGUCACACAAACCGG,0.00725
26,GUGCCUUGCGCCGGGAAACCACGCAAGGGAUGGUGUCAAAUUCGGCGAAACCUAAGCGCCCGCCCGGGCGUAUGGCAACGCCGAGCCAAGCUUCGGCGCCUGCGCCGAUGCAGGUGUAGAGACUAGACGGCACCCACCUAAGGCGAACGUUAUGGUGAAGGCAUAGUCAAGGGAGAGGCGAAAGUCACACAAACCGG,0.0141
27,GUGCCUUGCGCCGGGAAACCACGCAAGGGAUGGUGUCAAAUUCGGCGAAACCUAAGCGCCCGCCCGGGCGUAUGGCAACGCCGAGCCAAGCUUCGGCGCCUGCGCCGAUGCAGGUGUAGAGACUAGACGGCACCCACCUAAGGCGAACGUUAUGGUGAAGGCAUAGUCAAGGGAGCGGCGAAAGUCACACAAACCGG,0.0152
28,GUGCCUUGCGCCGGGAAACCACGCAAGGGAUGGUGUCAAAUUCGGCGAAACCUAAGCGCCCGCCCGGGCGUAUGGCAACGCCGAGCCAAGCUUCGGCGCCUGCGCCGAUGCAGGUGUAGAGACUAGACGGCACCCACCUAAGGCGAACGGUAUGGUGAAGGCAUAGUCGAGGGAGUGGCGAAAGUCACACAAACCGG,0.0116
29,GUGCCUUGCGCCGGGAAACCACGCAAGGGAUGGUGUCAAAUUCGGCGAAACCUAAGCGCCCGCCCGGGCGUAUGGCAACGCCGAGCCAAGCUUCGGCGCCUGCGCCGAUGCAGGUGUAGAGACUAGACGGCACCCACCUAAGGCGAACGGUAUGGUGAAGGCAUAGUCUAGGGAGUGGCGAAAGUCACACAAACCGG,0.0157
30,GUGCCUUGCGCCGGGAAACCACGCAAGGGAUGGUGUCAAAUUCGGCGAAACCUAAGCGCCCGCCCGGGCGUAUGGCAACGCCGAGCCAAGCUUCGGCGCCUGCGCCGAUGCAGGUGUAGAGACUAGACGGCACCCACCUAAGGCGAACGGUAUGGUGAAGGCAUAGUCAAGGGAGUGGCGAAAGUCACACAAACCGG,0.00939
